# Where a chain is given by its changes, count along the chain named.
# T1: human GIP receptor (human) (UniProt P48546)
# T1 sequence (looked up): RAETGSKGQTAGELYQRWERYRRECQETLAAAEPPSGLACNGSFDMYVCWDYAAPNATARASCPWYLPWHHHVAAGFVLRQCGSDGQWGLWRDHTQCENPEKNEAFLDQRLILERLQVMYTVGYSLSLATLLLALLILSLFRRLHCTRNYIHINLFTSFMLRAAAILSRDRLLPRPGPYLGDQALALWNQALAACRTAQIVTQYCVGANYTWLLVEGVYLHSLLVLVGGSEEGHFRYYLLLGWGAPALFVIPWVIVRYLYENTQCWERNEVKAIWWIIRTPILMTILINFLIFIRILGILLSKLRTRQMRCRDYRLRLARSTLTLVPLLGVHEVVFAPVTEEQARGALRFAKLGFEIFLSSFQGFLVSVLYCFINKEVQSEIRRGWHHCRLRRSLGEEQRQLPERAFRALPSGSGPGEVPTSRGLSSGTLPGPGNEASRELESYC
# B1: Example 429 (peptide)
# chain: YXQGTXTSDXXIXLDXKAQXXFIEXLIEGGPSSGAPEPSEG
# modifications: synthetic construct; SITE 2: note = 2-Aminoisobutyric Acid; SITE 6: note = alpha-methyl-2-fluoro-L-phenylalanine; SITE 10: note = 3-(4-Pyridyl)-L-alanine; SITE 11: note = alpha-methyl-L-serine; SITE 13: note = alpha-methyl-leucine; SITE 16: note = L-ornithine; SITE 17: note = Lysine is chemically mo
# B2: Example 424 (peptide)
# chain: YXQGTXTSDYSIXLDKKAQXAFIEYLEEGGPSSGAPPPSE
# modifications: synthetic construct; SITE 2: note = 2-Aminoisobutyric Acid; SITE 6: note = alpha-methyl-2-fluoro-L-phenylalanine; SITE 13: note = alpha-methyl-leucine; SITE 17: note = Lysine is chemically modified through conjugation of the epsilon-amino group of the Lysine side chain with (2-[2-(2-Amino-ethoxy)-et)
# B3: Example 433 (peptide)
# chain: B2 chain with X13L
# modifications: synthetic construct; SITE 2: note = 2-Aminoisobutyric Acid; SITE 6: note = alpha-methyl-2-fluoro-L-phenylalanine; SITE 17: note = Lysine is chemically modified through conjugation of the epsilon-amino group of the Lysine side chain with (gamma-Glu)2-CO-(CH2)16-CO2H; SITE 20: note = 2-Aminoisobutyric
# B4: Example 436 (peptide)
# chain: YXQGTXTSDXXIXLDXKAQXSFIEXLIEGGPSSGEPPPE
# modifications: synthetic construct; SITE 2: note = 2-Aminoisobutyric Acid; SITE 6: note = alpha-methyl-2-fluoro-L-phenylalanine; SITE 10: note = 3-(4-Pyridyl)-L-alanine; SITE 11: note = alpha-methyl-L-serine; SITE 13: note = alpha-methyl-leucine; SITE 16: note = L-ornithine; SITE 17: note = Lysine is chemically mo
# B5: Example 439 (peptide)
# chain: B4 chain with S21X, I27Q
# modifications: synthetic construct; SITE 2: note = 2-Aminoisobutyric Acid; SITE 6: note = alpha-methyl-2-fluoro-L-phenylalanine; SITE 10: note = 3-(4-Pyridyl)-L-alanine; SITE 11: note = alpha-methyl-L-serine; SITE 13: note = alpha-methyl-leucine; SITE 16: note = L-ornithine; SITE 17: note = Lysine is chemically mo
# B6: Example 444 (peptide)
# chain: B4 chain with K17I, S21X, E28K
# modifications: not fully specified; synthetic construct; SITE 2: note = 2-Aminoisobutyric Acid; SITE 6: note = alpha-methyl-2-fluoro-L-phenylalanine; SITE 10: note = 3-(4-Pyridyl)-L-alanine; SITE 11: note = alpha-methyl-L-serine; SITE 13: note = alpha-methyl-leucine; SITE 16: note = L-ornithine; SITE 20: note = 2-Aminoisobutyric Acid;
# B7: Example 438 (peptide)
# chain: B4 chain with S21X, I27S
# modifications: synthetic construct; SITE 2: note = 2-Aminoisobutyric Acid; SITE 6: note = alpha-methyl-2-fluoro-L-phenylalanine; SITE 10: note = 3-(4-Pyridyl)-L-alanine; SITE 11: note = alpha-methyl-L-serine; SITE 13: note = alpha-methyl-leucine; SITE 16: note = L-ornithine; SITE 17: note = Lysine is chemically mo
# B8: Example 437 (peptide)
# chain: B4 chain with S21X, I27A
# modifications: synthetic construct; SITE 2: note = 2-Aminoisobutyric Acid; SITE 6: note = alpha-methyl-2-fluoro-L-phenylalanine; SITE 10: note = 3-(4-Pyridyl)-L-alanine; SITE 11: note = alpha-methyl-L-serine; SITE 13: note = alpha-methyl-leucine; SITE 16: note = L-ornithine; SITE 17: note = Lysine is chemically mo
# B9: Example 425 (peptide)
# chain: HXQGTXTSDYSILLDKKAQXAFIEYLEEGGPSSGAPPPS
# modifications: not fully specified; synthetic construct; SITE 2: note = 2-Aminoisobutyric Acid; SITE 6: note = alpha-methyl-2-fluoro-L-phenylalanine; SITE 17: note = Lysine is chemically modified through conjugation of the epsilon-amino group of the Lysine side chain with (2-[2-(2-Amino-ethoxy)-ethoxy]-acetyl)-(gamma-Glu)-CO-(CH2) 16-
# B10: Example 443 (peptide)
# chain: B9 chain with H1Y, Y10X, L13X, P37E
# modifications: synthetic construct; SITE 2: note = 2-Aminoisobutyric Acid; SITE 6: note = alpha-methyl-2-fluoro-L-phenylalanine; SITE 10: note = 3-(4-Pyridyl)-L-alanine; SITE 13: note = alpha-methyl-leucine; SITE 17: note = Lysine is chemically modified through conjugation of the epsilon-amino group of the Lysine
# B11: Example 441 (peptide)
# chain: B9 chain with H1Y, Y10X, L13X, K16X
# modifications: synthetic construct; SITE 2: note = 2-Aminoisobutyric Acid; SITE 6: note = alpha-methyl-2-fluoro-L-phenylalanine; SITE 10: note = 3-(4-Pyridyl)-L-alanine; SITE 13: note = alpha-methyl-leucine; SITE 16: note = L-ornithine; SITE 17: note = Lysine is chemically modified through conjugation of the epsil
# B12: Example 428 (peptide)
# chain: B9 chain with H1Y, K16X, E27L
# modifications: synthetic construct; SITE 2: note = 2-Aminoisobutyric Acid; SITE 6: note = alpha-methyl-2-fluoro-L-phenylalanine; SITE 16: note = L-ornithine; SITE 17: note = Lysine is chemically modified through conjugation of the epsilon-amino group of the Lysine side chain with (gamma-Glu)2-CO-(CH2)16-CO2H; SITE
# B13: Example 445 (peptide)
# chain: B9 chain with H1Y, Y10X, L13X, S39E
# modifications: synthetic construct; SITE 2: note = 2-Aminoisobutyric Acid; SITE 6: note = alpha-methyl-2-fluoro-L-phenylalanine; SITE 10: note = 3-(4-Pyridyl)-L-alanine; SITE 13: note = alpha-methyl-leucine; SITE 17: note = Lysine is chemically modified through conjugation of the epsilon-amino group of the Lysine
# B14: Example 427 (peptide)
# chain: B9 chain with H1Y, K16X, E27L
# modifications: synthetic construct; SITE 2: note = 2-Aminoisobutyric Acid; SITE 6: note = alpha-methyl-2-fluoro-L-phenylalanine; SITE 16: note = L-ornithine; SITE 17: note = Lysine is chemically modified through conjugation of the epsilon-amino group of the Lysine side chain with (2-[2-(2-Amino-ethoxy)-ethoxy]-ace)
# B15: Example 426 (peptide)
# chain: B9 chain
# modifications: synthetic construct; SITE 2: note = 2-Aminoisobutyric Acid; SITE 6: note = alpha-methyl-2-fluoro-L-phenylalanine; SITE 17: note = Lysine is chemically modified through conjugation of the epsilon-amino group of the Lysine side chain with (gamma-Glu)2-CO-(CH2)16-CO2H; SITE 20: note = 2-Aminoisobutyric
# B16: Example 442 (peptide)
# chain: B9 chain with H1Y, Y10X, L13X, A35E
# modifications: synthetic construct; SITE 2: note = 2-Aminoisobutyric Acid; SITE 6: note = alpha-methyl-2-fluoro-L-phenylalanine; SITE 10: note = 3-(4-Pyridyl)-L-alanine; SITE 13: note = alpha-methyl-leucine; SITE 17: note = Lysine is chemically modified through conjugation of the epsilon-amino group of the Lysine
# B17: Example 430 (peptide)
# chain: B9 chain with H1Y, K17I, E24K
# modifications: not fully specified; synthetic construct; SITE 2: note = 2-Aminoisobutyric Acid; SITE 6: note = alpha-methyl-2-fluoro-L-phenylalanine; SITE 20: note = 2-Aminoisobutyric Acid; SITE 24: note = Lysine is chemically modified through conjugation of the epsilon-amino group of the Lysine side chain with (2-[2-(2-Amino-ethoxy)-
# B18: Example 431 (peptide)
# chain: YXQGTXTSDYSIXLDKKAQXAFIEYLEEGGPSSGAPPPSEG
# modifications: synthetic construct; SITE 2: note = 2-Aminoisobutyric Acid; SITE 6: note = alpha-methyl-2-fluoro-L-phenylalanine; SITE 13: note = alpha-methyl-leucine; SITE 17: note = Lysine is chemically modified through conjugation of the epsilon-amino group of the Lysine side chain with (2-[2-(2-Amino-ethoxy)-et)
# B19: Example 434 (peptide)
# chain: B18 chain with X13L
# modifications: synthetic construct; SITE 2: note = 2-Aminoisobutyric Acid; SITE 6: note = alpha-methyl-2-fluoro-L-phenylalanine; SITE 17: note = Lysine is chemically modified through conjugation of the epsilon-amino group of the Lysine side chain with (gamma-Glu)2-CO-(CH2)16-CO2H; SITE 20: note = 2-Aminoisobutyric
# B20: Example 435 (peptide)
# chain: B18 chain with X13L, E40G, G41E
# modifications: synthetic construct; SITE 2: note = 2-Aminoisobutyric Acid; SITE 6: note = alpha-methyl-2-fluoro-L-phenylalanine; SITE 17: note = Lysine is chemically modified through conjugation of the epsilon-amino group of the Lysine side chain with (gamma-Glu)2-CO-(CH2)16-CO2H; SITE 20: note = 2-Aminoisobutyric
# B21: Example 39 (peptide)
# chain: YXQGTFTSDFSKXLDKKAQXAFIQWLLEGGPSSGAPPPSEG
# modifications: Lys acylated; non-natural residues; C-amide; synthetic construct; SITE 2: note = 2-Aminoisobutyric Acid; SITE 13: note = alpha-methyl-leucine; SITE 17: note = Lysine is chemically modified through conjugation of the epsilon-amino group of the Lysine side chain with (2-[2-(2-Amino-ethoxy)-ethoxy]-acetyl)-(gamma-Glu)-CO-(CH2) 18-CO2H; SITE 20: n
# B22: Example 40 (peptide)
# chain: B21 chain with Q24E, L27I
# modifications: Aib, αMeL; lysine acylated; C-terminal amide; synthetic construct; SITE 2: note = 2-Aminoisobutyric Acid; SITE 13: note = alpha-methyl-leucine; SITE 17: note = Lysine is chemically modified through conjugation of the epsilon-amino group of the Lysine side chain with (2-[2-(2-Amino-ethoxy)-ethoxy]-acetyl)-(gamma-Glu)-CO-(CH2) 18-CO2H; SITE 20: n
# Key:
# Assay in all cases: cell-based or functional assay
# hGLP-1R = hGLP-1R (Homo sapiens, UniProt P43220)
# hGLP-1R, sequence (P43220 24-463): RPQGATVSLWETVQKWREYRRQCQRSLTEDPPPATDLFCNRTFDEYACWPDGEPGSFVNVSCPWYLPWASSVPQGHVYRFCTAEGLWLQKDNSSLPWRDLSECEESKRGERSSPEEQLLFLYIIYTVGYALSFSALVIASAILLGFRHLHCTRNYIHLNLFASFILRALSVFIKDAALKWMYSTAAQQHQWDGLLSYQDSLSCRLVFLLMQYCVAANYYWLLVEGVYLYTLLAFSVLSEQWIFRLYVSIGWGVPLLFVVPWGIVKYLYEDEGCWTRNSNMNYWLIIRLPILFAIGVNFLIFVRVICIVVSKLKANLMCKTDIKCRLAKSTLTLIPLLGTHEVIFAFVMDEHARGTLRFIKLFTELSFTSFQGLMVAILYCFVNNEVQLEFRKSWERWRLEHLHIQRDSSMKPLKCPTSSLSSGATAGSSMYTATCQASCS
# [1] = target: T1, human GIP receptor (human)
# [2] = target: human glucagon receptor (human) (UniProt P47871)
# human glucagon receptor (human), sequence (P47871 26-477): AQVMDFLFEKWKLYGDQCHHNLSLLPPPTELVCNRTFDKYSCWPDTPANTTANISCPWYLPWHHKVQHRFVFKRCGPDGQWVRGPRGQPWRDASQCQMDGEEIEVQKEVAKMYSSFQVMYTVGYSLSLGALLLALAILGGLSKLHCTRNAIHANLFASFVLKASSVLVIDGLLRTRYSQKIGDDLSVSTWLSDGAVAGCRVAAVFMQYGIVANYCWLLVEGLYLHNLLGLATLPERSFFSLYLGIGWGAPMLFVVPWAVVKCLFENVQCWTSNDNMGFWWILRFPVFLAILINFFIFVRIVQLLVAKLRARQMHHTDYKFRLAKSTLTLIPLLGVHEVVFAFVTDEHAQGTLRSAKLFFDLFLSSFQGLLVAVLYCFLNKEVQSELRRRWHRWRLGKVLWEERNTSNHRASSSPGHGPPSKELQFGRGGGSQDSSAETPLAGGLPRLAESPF
Binder,Relative cAMP EC50 (hGLP-1R) [nM],"cAMP Rel EC50, nM (1% HSA) (hGLP-1R) [nM]",Relative cAMP EC50 [1] [nM],"cAMP Rel EC50, nM (1% HSA) [1] [nM]",Relative cAMP EC50 [2] [nM],"cAMP Rel EC50, nM (1% HSA) [2] [nM]",cAMP Rel EC50 (in the presence of 1% HSA) (hGLP-1R) [nM],cAMP Rel EC50 (in the presence of 1% HSA) [1] [nM],cAMP Rel EC50 (in the presence of 1% HSA) [2] [nM]
B1,0.178,12.1,0.0142,1.89,1.19,138,,,
B2,0.318,29.5,0.0154,3.21,3.12,443,,,
B3,0.273,43.4,0.0206,15.3,5.78,532,,,
B4,0.173,11.7,0.0294,1.18,2.27,182,,,
B5,0.293,15.1,0.0634,14.6,4.38,165,,,
B6,0.352,54.6,0.0106,1.74,6.49,1280,,,
B7,0.815,41.1,0.225,53.8,3.62,431,,,
B8,0.421,26.9,0.0872,16.9,1.76,188,,,
B9,0.15,20.3,0.0997,46.9,5.49,1150,,,
B10,0.572,34.3,0.0291,1.57,6.09,265,,,
B11,0.365,24.7,0.0239,1.96,8,855,,,
B12,0.207,38.2,0.01,4.55,2.35,536,,,
B13,0.731,23.2,0.0206,2.41,10.1,448,,,
B14,0.282,42.9,0.0121,4.25,3.81,1440,,,
B15,0.139,16.6,0.079,29.8,4.33,740,,,
B16,0.267,23.9,0.0237,1.81,5.66,342,,,
B17,0.438,78.9,0.0144,4.65,2.11,559,,,
B18,0.392,35.2,0.0157,3.73,3.32,352,,,
B19,0.236,35,0.0226,10.6,2.84,525,,,
B20,0.311,33.6,0.0239,10.3,3.01,334,,,
B21,2.13,,0.299,,10.1,,260,30.5,1090
B22,0.693,,0.139,,12.3,,138,76.7,2750

# From US20240270821A1, “GIP/GLP1/GCG TRI-RECEPTOR AGONISTS AND USES THEREOF” (priority 2023, published 2024)
